Measurements taken from US20020028482A1, “NIP45 HUMAN HOMOLOG” (priority 1997, published 2002).

T1: hNFAT1 (Homo sapiens, UniProt Q13469)
T1 construct: contains the coding region for 400-692 amino acid residues of hNFAT 1; expressed in transfected cells; host or cells: yeast strain EGY48/p8op-lacZ
T1 sequence (Q13469 400-692): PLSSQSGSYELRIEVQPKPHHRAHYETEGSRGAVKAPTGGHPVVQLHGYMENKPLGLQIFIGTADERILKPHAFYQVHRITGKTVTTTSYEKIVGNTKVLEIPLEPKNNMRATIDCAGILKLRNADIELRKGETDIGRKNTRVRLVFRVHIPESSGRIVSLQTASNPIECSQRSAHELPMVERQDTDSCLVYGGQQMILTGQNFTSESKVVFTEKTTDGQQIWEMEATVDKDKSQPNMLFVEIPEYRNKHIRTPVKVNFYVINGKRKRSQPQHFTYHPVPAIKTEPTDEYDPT


Columns and labels:
LacZ = LacZ (Escherichia coli, UniProt P00722); conditions: LacZ substrate
LacZ, sequence (P00722 whole entry): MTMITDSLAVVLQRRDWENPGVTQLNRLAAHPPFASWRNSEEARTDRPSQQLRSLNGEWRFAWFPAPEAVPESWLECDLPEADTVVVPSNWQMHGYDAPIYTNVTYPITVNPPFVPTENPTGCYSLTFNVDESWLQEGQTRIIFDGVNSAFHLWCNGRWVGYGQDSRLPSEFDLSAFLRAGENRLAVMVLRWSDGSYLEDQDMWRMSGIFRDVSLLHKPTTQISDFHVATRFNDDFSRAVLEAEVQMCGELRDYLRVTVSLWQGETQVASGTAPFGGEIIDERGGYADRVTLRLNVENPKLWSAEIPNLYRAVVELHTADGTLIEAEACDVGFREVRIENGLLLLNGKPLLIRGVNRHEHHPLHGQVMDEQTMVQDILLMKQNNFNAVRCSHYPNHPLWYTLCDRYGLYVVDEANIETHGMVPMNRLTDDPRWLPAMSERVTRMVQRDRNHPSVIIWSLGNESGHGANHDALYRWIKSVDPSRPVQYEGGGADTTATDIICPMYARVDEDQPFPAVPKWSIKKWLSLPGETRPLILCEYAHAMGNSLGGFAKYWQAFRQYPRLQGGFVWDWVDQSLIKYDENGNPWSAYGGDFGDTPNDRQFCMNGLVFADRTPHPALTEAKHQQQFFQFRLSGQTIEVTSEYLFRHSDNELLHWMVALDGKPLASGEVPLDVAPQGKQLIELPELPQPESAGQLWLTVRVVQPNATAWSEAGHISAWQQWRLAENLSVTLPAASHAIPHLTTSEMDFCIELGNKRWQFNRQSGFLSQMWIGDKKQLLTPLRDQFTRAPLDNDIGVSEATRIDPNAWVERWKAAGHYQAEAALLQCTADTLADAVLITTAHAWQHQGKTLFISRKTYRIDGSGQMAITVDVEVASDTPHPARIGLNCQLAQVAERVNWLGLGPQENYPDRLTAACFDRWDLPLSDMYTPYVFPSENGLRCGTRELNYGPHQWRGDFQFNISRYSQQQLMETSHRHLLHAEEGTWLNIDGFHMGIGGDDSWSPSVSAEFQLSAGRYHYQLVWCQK
Protocol: (1) CPRG is used rather than ONPG. […] In assays SmM (10×Km) is used which we take to be approximately saturating.
Grow yeast cultures overnight. Dilute back to OD 0.05 to 0.1 next day and allow to continue growing. When they have reached an OD of about 1, make a set of dilutions in culture medium. Add 120 ul of each dilution to the wells of a microtitre plate. Start the reaction by addition of 30 ul reaction buffer and measure the initial rate of reaction (kinetic read over 10 minutes).

HepG2 cells = conditions: overexpression in HepG2 cells; cited from earlier work
hNFAT1 = biological target: T1, hNFAT1; experiment: yeast two hybrid assay, interaction with hNFAT1; assay type: binding; conditions: colonies, FIG. 11 and FIG. 12
Source text: A 879 bp DNA fragment, corresponding to positions 1418-2296 of hNFAT1 nucleic acid sequence (GenBank Accession number U43342), was PCR amplified via standard methods using Clontech human lymph node Marathon Ready cDNA as template. CLONTECH, Palo Alto, Calif. The resulting PCR product was cloned into the bait vector, plexA-BD (CLONTECH). The hybrid construct (plexA-BD-hNFAT1-BD) contains the coding region for 400-692 amino acid residues of hNFAT 1, which corresponds to the DNA binding region of the hNFAT 1 protein. The full length hNIP45H cNDA was cloned into prey vector pB42AD (CLONTECH). This hybrid construct (pB42AD-hNIP45H) contains the entire open reading frame of […].
Yeast strain EGY48/p8op-lacZ (CLONTECH) was transformed with the plexA-BD-hNFAT1-BD plasmid. […] Yeast strain EGY/p8op-lacZ/plexA-BD-hNFAT1-BD was subsequently transformed with pB42AD-hNIP45H prey construct. Transformants from SD/-UHW plates were subsequently tested on a 4-plate test (SD/-UHW, X-gal vs. GR/-UHW, X-gal, and SD/-UHWL vs. GR/-UHWL).

mNFATp = experiment: yeast two hybrid assay, interaction with mNFATp; assay type: binding, murine; conditions: colonies, FIG. 11 and FIG. 12
mNFATp, sequence (Q60591 394-576 limits assumed): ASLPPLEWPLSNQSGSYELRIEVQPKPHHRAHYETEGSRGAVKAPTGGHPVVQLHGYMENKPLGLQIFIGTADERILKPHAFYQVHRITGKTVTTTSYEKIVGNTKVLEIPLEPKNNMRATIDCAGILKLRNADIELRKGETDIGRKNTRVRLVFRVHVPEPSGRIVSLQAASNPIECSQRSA
Protocol: An hNIP45 AD-fusion construct is co-transformed into the yeast host EGY48 (CLONTECH, cat # K1609-1) with the original murine LexA-NFATp bait and reporter, pSH18-34 (CLONTECH, cat# K1609-1). The functional conservation of hNIP45 is assessed by its ability of interacting with the NFATp protein to activate the reporter gene expression. Hodge, M., et al., NF-AT-Driven Interleukin-4 Transcription Potentiated by NIP45, Science, 274:1903 (1996). See, Example VI infra.

Row | Molecule | Km (LacZ) [µM] | increase of endogenous IL-4 production (HepG2 cells) [fold] | interaction with hNFAT1 (hNFAT1) | interaction with mNFATp (mNFATp)
1 | O=S1(=O)OC(c2ccc(O)c(Cl)c2)(c2ccc(O[C@@H]3O[C@H](CO)[C@H](O)[C@H](O)[C@H]3O)c(Cl)c2)c2ccccc21 (stereo partly drawn) [CPRG, Chlorophenol red-b-D-galacopyranoside] | ~500 | – | – | –
2 | mNIP45: murine NIP45, NF-ATp interacting protein, 412 amino acid residues, SEQ ID NO:4 (protein, listed as Mus musculus) MAEPLRGRGPRSRGGRGARRARGARGRCPRARQSPARLIPDTVLVDLVSDSDEEVLEVADPVEVPVARLPAPAKPEQDSDSDSEGAAEGPAGAPRTLVRRRRRRLLDPGEAPVVPVYSGKVQSSLNLIPDNSSLLKLCPSEPEDEADLTNSGSSPSEDDALPSGSPWRKKLRKKCEKEEKKMEEFPDQDISPLPQPSSRNKSRKHTEALQKLREVNKRLQDLRSCLSPKQHQSPALQSTDDEVVLVEGPVLPQSSRLFTLKIRCRADLVRLPVRMSEPLQNVVDHMANHLGVSPNRILLLFGESELSPTATPSTLKLGVADIIDCVVLASSSEATETSQELRLRVQGKEKHQMLEISLSPDSPLKVLMSHYEEAMGLSGHKLSFFFDGTKLSGKELPADLGLESGDLIEVWG | – | 200 | does not interact with hNFAT1 very well | interacts well
3 | hNIP45: novel human NIP45 polypeptide, 419 amino acid residues, SEQ ID NO:3, IL-4 transcriptional trans-activator (protein, listed as Homo sapiens) MAEPVGKRGRWSGGSGAGRGGRGGWGGRGRRPRAQRSPSRGTLDVVSVDLVTDSDEEILEVATARGAADEVEVEPPEPPGPVASRDNSNSDSEGEDRRPAGPPREPVRRRRRLVLDPGEAPLVPVYSGKVKSSLRLIPDDLSLLKLYPPGDEEEAELADSSGLYHEGSPSPGSPWKTKLRTKDKEEKKKTEFLDLDNSPLSPPSPRTKSRTHTRALKKLSEVNKRLQDLRSCLSPKPPQGQEQQGQEDEVVLVEGPTLPETPRLFPLKIRCRADLVRLPLRMSEPLQSVVDHMATHLGVSPSRILLLFGETELSPTATPRTLKLGVADIIDCVVLTSSPEATETSQQLQLRVQGKEKHQTLEVSLSRDSPLKTLMSHYEEAMGLSGRKLSFFFDGTKLSGRELPADLGMESGDLIEVWG | – | – | interacts well | –
